Reference: PMC3905892 (Nucleic Acids Research, 2013)

Molecular target: Paf1(57–392) (human, UniProt Q8N7H5 57-392)
Assay: SEC

B1: Leo1(277–562) (domain or fragment)
chain: SDSEDEVLRMKRKNAIASDSEADSDTEVPKDNSGTMDLFGGADDISSGSDGEDKPPTPGQPVDENGLPQDQQEEEPIPETRIEVEIPKVNTDLGNDLYFVKLPNFLSVEPRPFDPQYYEDEFEDEEMLDEEGRTRLKLKVENTIRWRIRRDEEGNEIKESNARIVKWSDGSMSLHLGNEVFDVYKAPLQGDHNHLFIRQGTGLQGQAVFKTKLTFRPHSTDSATHRKMTLSLADRCSKTQKIRILPMAGRDPECQRTEMIKKEEERLRASIRRESQQRRMREKQHQ
stoichiometry N: 1
